Results: article PMC7691508 (Nature Communications, 2020)

T1: IFN regulatory factor 3 (IRF3) (mouse (endogenous in peritoneal macrophages, RAW264.7, L929, MEFs)), P70671
T1 chain: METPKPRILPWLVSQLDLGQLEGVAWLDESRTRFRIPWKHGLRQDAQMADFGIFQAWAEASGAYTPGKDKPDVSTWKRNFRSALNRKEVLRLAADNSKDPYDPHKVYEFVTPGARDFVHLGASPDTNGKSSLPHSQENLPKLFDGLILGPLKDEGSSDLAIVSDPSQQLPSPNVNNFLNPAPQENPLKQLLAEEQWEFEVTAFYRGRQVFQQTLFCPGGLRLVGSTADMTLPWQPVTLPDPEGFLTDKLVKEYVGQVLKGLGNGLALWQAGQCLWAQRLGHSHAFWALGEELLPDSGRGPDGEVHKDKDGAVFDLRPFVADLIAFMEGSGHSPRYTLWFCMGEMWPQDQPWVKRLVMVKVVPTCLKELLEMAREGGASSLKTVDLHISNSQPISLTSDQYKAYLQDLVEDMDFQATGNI

B1: stimulator of interferon genes (STING) (natural protein)
chain: MPYSNLHPAIPRPRGHRSKYVALIFLVASLMILWVAKDPPNHTLKYLALHLASHELGLLLKNLCCLAEELCHVQSRYQGSYWKAVRACLGCPIHCMAMILLSSYFYFLQNTADIYLSWMFGLLVLYKSLSMLLGLQSLTPAEVSAVCEEKKLNVAHGLAWSYYIGYLRLILPGLQARIRMFNQLHNNMLSGAGSRRLYILFPLDCGVPDNLSVVDPNIRFRDMLPQQNIDRAGIKNRVYSNSVYEILENGQPAGVCILEYATPLQTLFAMSQDAKAGFSREDRLEQAKLFCRTLEEILEDVPESRNNCRLIVYQEPTDGNSFSLSQEVLRHIRQEEKEEVTMNAPMTSVAPPPSVLSQEPRLLISGMDQPLPLRTDLI
B2: IFN regulatory factor 3 (IRF3), P70671 1-419 (natural protein)
chain: T1 chain

Assays:
native gel or EMSA = molecular target: the molecule itself; assay: native gel or EMSA
[1] = molecular target: T1, IFN regulatory factor 3 (IRF3) (mouse …); assay: native gel or EMSA; conditions: remark: other sources report otherwise

| Binder | stoichiometry N (native gel or EMSA) | stoichiometry N [1] |
| --- | --- | --- |
| B1 | 2 | – |
| B2 | – | 2 |
